This is an account of results in paper PMC4869123 (Scientific Reports, 2016).

Like-named read-outs stand apart in the source and are kept apart here. *1 amine or outer side, *2 acyl side, *3 side chain or, on linkers, in order; H or OH if unused. Where a SMILES comes first, the peptide text is derived from it. Bridges are numbered along the chain shown (N, C = ends). Roman numbers before positions name the chains, in order. Where no end group is shown, it is not given here. [ ]: non-standard residue; d: D form. X1 = O=C(CCOCCOCCOCCOCCOCCOCCOCCOCCOCCOCCOCCOCCOCCOCCOCCOCCOCCOCCOCCOCCOCCC(=O)[*:2])[*:1]; CO(CH2CH2O)5CH2CH2CO = O=C(CCOCCOCCOCCOCCOCCC(=O)[*:2])[*:1]; Lys(Me2) = CN(C)CCCC[C@H](N)C(=O)O A value given as a limit tells only on which side of the number the result lay.

One assay concerns the target T1, murine IL-17A (Mus musculus, UniProt Q62386).
T1 construct: host or cells: added to MLE-12 mouse epithelial cells (ATCC CRL2110)
T1 sequence (Q62386 26-158): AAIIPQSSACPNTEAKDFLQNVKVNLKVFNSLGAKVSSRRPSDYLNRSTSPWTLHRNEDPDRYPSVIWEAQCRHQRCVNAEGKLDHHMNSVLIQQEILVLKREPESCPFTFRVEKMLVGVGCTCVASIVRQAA
Briefly: Murine functional cell assay, MLE-12 mouse epithelial cells, KC production. In kind it is cell-based. Here is the method: […]. For inhibitor screen, human BJ fibroblast cells (ATCC CRL2522) (American Type Culture Collection, VA) were used. For mouse cell based assay MLE-12 mouse epithelial cells (ATCC CRL2110) were used. Both cell lines were maintained in ATCC recommended media. Cells were seeded at 5 × 10^3 cells/well into 96-well flat-bottom microtiter plates in which peptides that had been pre-diluted with cytokines (1 ng/mL for human IL-17A or 15 ng/mL for mouse IL-17A) in culture medium. Cells were incubated at 37 °C for 16–24 hrs, and supernatants were collected and analyzed by ELISA for either human CXCL1/GRO-α (R&D Systems DY275) or mouse CXCL1/KC (R&D Systems DY453).
Figure S4. Inhibition of IL-17A induced murine keratinocyte-derived cytokine (KC). MLE-12 mouse epithelial cellswere cultured in the presence of IL-17A […]
which time cell culture were removed for analysis of KCproduction.Data are mean and error bars of +/-standard deviation of duplicatedmeasurements […]
(1 picture or pasted object on this page, not shown here)

Assay [1] has as its target T2, human IL-17A (Homo sapiens, UniProt Q16552).
T2 construct: host or cells: added to BJ human fibroblasts (ATCC CRL2522)
Briefly: BJ human fibroblast cell assay, IL-17A stimulated GRO-α production. In kind it is cell-based. The conditions noted are these: BJ human fibroblast cells, 1 ng/ml human IL-17A. An excerpt:
For inhibitor screen, human BJ fibroblast cells (ATCC CRL2522) (American Type Culture Collection, VA) were used. For mouse cell based assay MLE-12 mouse epithelial cells (ATCC CRL2110) were used. Both cell lines were maintained in ATCC recommended media.

The target of assay [2] is T3, biotinylated mouse IL-17A (mouse, UniProt Q62386 26-158, biotinylated).
T3 sequence (looked up): T1 sequence (Q62386 26-158)
Put plainly: cell-based or functional assay.

The target in assay [3] is T3, biotinylated mouse IL-17A. Briefly: SPR; Biacore 3000; biotinylated protein captured on a streptavidin chip (about 2500 to 3500 RUs); peptide injected at 50 μl/min, 180 s association, at least 600 s dissociation; 10 mM HEPES pH 7.4, 150 mM NaCl, 0.01% P20, 3% DMSO; single site model, global fit. The conditions noted are these: both partners purified.
Assay [4] addresses T4, human IL-17A (human, UniProt Q16552 24-155).
Assay [5] has as its target T4, human IL-17A. Briefly: cell-based or functional assay.
Assay [6] addresses T5, biotinylated recombinant human IL-17A (rhIL-17, R&D Systems #317-ILB) (human, UniProt Q16552 24-155, biotinylated).
T5 construct: IL-17A, human, recombinant; also called Biotinylated IL-17A; source: bought: R&D Systems
To be noted: both partners purified.

T4 sequence (Q16552 24-155): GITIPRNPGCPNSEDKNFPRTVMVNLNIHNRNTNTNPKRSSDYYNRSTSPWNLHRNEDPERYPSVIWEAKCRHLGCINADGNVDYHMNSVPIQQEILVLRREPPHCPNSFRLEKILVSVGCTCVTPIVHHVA
T5 sequence (Q16552 24-155): as above
T2 sequence (Q16552 24-155): as above

Ac-IHVTIPADLWDWINK-NH2 [Compound 30] had an IC50 against murine IL-17A of more than 1000 nM. Regarding `CC[C@H](C)[C@H](NC(C)=O)C(=O)N[C@H](C(=O)N[C@H](C(=O)N[C@H](C(=O)N[C@H](C(=O)N1CCC[C@H]1C(=O)N[C@@H](C)C(=O)N[C@@H](CC(=O)O)C(=O)N[C@@H](CC(C)C)C(=O)N[C@@H](Cc1c[nH]c2ccccc12)C(=O)N[C@@H](CC(=O)O)C(=O)N[C@@H](Cc1c[nH]c2ccccc12)C(=O)N[C@H](C(=O)N[C@@H](CCCCNC(=O)CCOCCOCCOCCOCCOCCOCCOCCOCCOCCOCCOCCOCCOCCOCCOCCOCCOCCOCCOCCOCCOCCC(=O)NCCCC[C@H](NC(=O)[C@@H](NC(=O)[C@H](Cc1c[nH]c2ccccc12)NC(=O)[C@H](CC(=O)O)NC(=O)[C@H](Cc1c[nH]c2ccccc12)NC(=O)[C@H](CC(C)C)NC(=O)[C@H](CC(=O)O)NC(=O)[C@H](C)NC(=O)[C@@H]1CCCN1C(=O)[C@@H](NC(=O)[C@@H](NC(=O)[C@@H](NC(=O)[C@@H](NC(=O)[C@@H](NC(C)=O)[C@@H](C)CC)[C@@H](C)O)C(C)C)[C@@H](C)O)[C@@H](C)CC)[C@@H](C)CC)C(=O)N[C@@H](CCCCN(C)C)C(N)=O)C(=O)N[C@@H](CCCCN(C)C)C(N)=O)[C@@H](C)CC)[C@@H](C)CC)[C@@H](C)O)C(C)C)[C@@H](C)O` [Compound 45] (I: Ac-ITVTIPADLWDWIK[Lys(Me2)]-NH2 / II: Ac-ITVTIPADLWDWIK[Lys(Me2)]-NH2; linker I:14-II:14 via X1), the IC50 against human IL-17A [1] worked out at 0.1 nM; at murine IL-17A (MLE-12 cells, 15 ng/ml murine IL-17A, KC production, read-out: IC50, murine IL-17A), 41 nM. On to `CC[C@H](C)[C@H](NC(C)=O)C(=O)N[C@H](C(=O)N[C@H](C(=O)N[C@H](C(=O)N[C@H](C(=O)N1CCC[C@H]1C(=O)N[C@@H](C)C(=O)N[C@@H](CC(=O)O)C(=O)N[C@@H](CC(C)C)C(=O)N[C@@H](Cc1c[nH]c2ccccc12)C(=O)N[C@@H](CC(=O)O)C(=O)N[C@@H](Cc1c[nH]c2ccccc12)C(=O)N[C@H](C(=O)N[C@@H](CC(N)=O)C(=O)N[C@@H](CCCCN(C)C)C(=O)N[C@@H](CCCCNC(=O)CCOCCOCCOCCOCCOCCC(=O)NCCCC[C@H](NC(=O)[C@H](CCCCN(C)C)NC(=O)[C@H](CC(N)=O)NC(=O)[C@@H](NC(=O)[C@H](Cc1c[nH]c2ccccc12)NC(=O)[C@H](CC(=O)O)NC(=O)[C@H](Cc1c[nH]c2ccccc12)NC(=O)[C@H](CC(C)C)NC(=O)[C@H](CC(=O)O)NC(=O)[C@H](C)NC(=O)[C@@H]1CCCN1C(=O)[C@@H](NC(=O)[C@@H](NC(=O)[C@@H](NC(=O)[C@@H](NC(=O)[C@@H](NC(C)=O)[C@@H](C)CC)[C@@H](C)O)C(C)C)[C@@H](C)O)[C@@H](C)CC)[C@@H](C)CC)C(N)=O)C(N)=O)[C@@H](C)CC)[C@@H](C)CC)[C@@H](C)O)C(C)C)[C@@H](C)O` [Compound 46] (I: Ac-ITVTIPADLWDWIN[Lys(Me2)]K-NH2 / II: Ac-ITVTIPADLWDWIN[Lys(Me2)]K-NH2; linker I:16-II:16 via CO(CH2CH2O)5CH2CH2CO), for which it took 582 nM to reach half-maximal inhibition against human IL-17A [1] (IC50).

B1: high affinity IL-17A peptide antagonist (HAP) (peptide)
peptide: Ac-IHVTIPADLWDWINK
notes: 15-residue peptide that combines the key residues found by SAR; made on Rink resin; a C-terminal amide is surmised; also called 30; peptide 30; source: synthetic peptide
In the case of B1, in assay [2], the “IC50 in a murine functional cell assay using 15 ng/ml murine IL-17A (inhibition of murine IL-17A signaling)” value is more than 1000 nM. This molecule returned a Kd in assay [3] of 30.1 ± 0.1 nM.

B2: peptide 36 (peptide)
peptide: Ac-IHVTIPADLWDWI
modifications: not fully specified (C-terminus)
B2: the Cell IC50: inhibition of IL-17A signaling in BJ human fibroblast cells stimulated with 1 ng/ml IL-17A in the assay with human IL-17A [4] was determined as 183 nM.

B3: peptide 1 (peptide)
peptide: Ac-IVVTMPADLWDWIKA
modifications: not fully specified (C-terminus)
notes: 15-mer linear peptide from phage display; made on Rink resin; a C-terminal amide is surmised; also called phage peptide 1; source: synthetic peptide
B3: in the assay with human IL-17A [5], the “Cell IC50: inhibition of GRO-α production in BJ human fibroblast cells stimulated with 1 ng/ml IL-17A” value came to 370 nM. Further, in assay [6], the IC50 was 80 nM.

B4: peptide 24 (peptide)
peptide: Ac-IVVTIPADLWDWIRA
modifications: not fully specified (C-terminus)
notes: analogue of peptide 2, I at position 5; made on Rink resin; a C-terminal amide is surmised; source: synthetic peptide
Consider B4, for which, in the assay with human IL-17A [5], the “Cell IC50: inhibition of GRO-α production in BJ human fibroblast cells stimulated with 1 ng/ml IL-17A” value was 18 nM. The IC50 in assay [6] is 3 nM.
